The labels stand for the following.
T1: EsCas13d, nuclease-dead (Eubacterium siraeum, UniProt B0MS50, R295A;H300A;R849A;H854A)
T1 sequence: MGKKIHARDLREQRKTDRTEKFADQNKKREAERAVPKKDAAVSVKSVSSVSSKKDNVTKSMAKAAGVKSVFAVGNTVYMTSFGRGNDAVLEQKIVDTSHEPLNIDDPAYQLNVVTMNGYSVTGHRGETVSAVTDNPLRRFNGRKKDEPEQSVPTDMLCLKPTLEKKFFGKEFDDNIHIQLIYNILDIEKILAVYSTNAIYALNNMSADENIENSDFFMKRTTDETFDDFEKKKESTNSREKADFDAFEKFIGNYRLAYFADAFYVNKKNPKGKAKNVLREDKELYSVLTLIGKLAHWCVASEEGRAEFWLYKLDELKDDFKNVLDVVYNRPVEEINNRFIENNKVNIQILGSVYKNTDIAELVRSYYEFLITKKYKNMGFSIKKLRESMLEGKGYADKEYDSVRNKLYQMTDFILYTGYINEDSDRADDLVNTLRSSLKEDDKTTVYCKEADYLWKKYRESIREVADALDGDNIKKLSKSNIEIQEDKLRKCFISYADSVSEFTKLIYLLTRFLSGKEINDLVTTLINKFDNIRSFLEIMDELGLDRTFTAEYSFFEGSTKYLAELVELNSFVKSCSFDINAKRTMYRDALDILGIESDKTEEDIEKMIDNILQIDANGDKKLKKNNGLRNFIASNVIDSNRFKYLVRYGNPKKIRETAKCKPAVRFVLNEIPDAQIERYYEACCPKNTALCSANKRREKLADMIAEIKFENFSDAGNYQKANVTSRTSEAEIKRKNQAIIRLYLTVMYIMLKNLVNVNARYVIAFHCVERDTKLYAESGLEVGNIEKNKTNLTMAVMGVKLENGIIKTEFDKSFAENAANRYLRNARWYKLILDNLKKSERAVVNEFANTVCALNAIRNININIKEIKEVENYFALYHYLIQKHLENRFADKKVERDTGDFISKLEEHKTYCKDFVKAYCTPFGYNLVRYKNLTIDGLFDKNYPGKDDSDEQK

B1: target 3 A5G,U22C (mixed)
RNA 1: CACCCGUGCAAAAUUGCAGGGGUCUAAAACGACCUGAAUAUUUCAGAUCAAA
RNA 2: GGGAAUGGAUCCACAUCUACGAAUUCGUUCUUGAUCUGAAAUAUUCGGGUCUGCAGAUCGGAAGAGCACACGU
B2: target 3 U2G,A9U (mixed)
RNA 1: CACCCGUGCAAAAUUGCAGGGGUCUAAAACGACCUGAAUAUUUCAGAUCAAA
RNA 2: GGGAAUGGAUCCACAUCUACGAAUUCGUUUUUGAUCUGAAAUUUUCAGGGCUGCAGAUCGGAAGAGCACACGU
B3: target 3 insG 3' of 9,insG 3' of 7 (mixed)
RNA 1: CACCCGUGCAAAAUUGCAGGGGUCUAAAACGACCUGAAUAUUUCAGAUCAAA
RNA 2: GGGAAUGGAUCCACAUCUACGAAUUCGUUUUUGAUCUGAAAUAGUUGCAGGUCUGCAGAUCGGAAGAGCACACGU
B4: target 3 U2A,A9G (mixed)
RNA 1: CACCCGUGCAAAAUUGCAGGGGUCUAAAACGACCUGAAUAUUUCAGAUCAAA
RNA 2: GGGAAUGGAUCCACAUCUACGAAUUCGUUUUUGAUCUGAAAUGUUCAGGACUGCAGAUCGGAAGAGCACACGU
B5: target 3 G3C,A5C (mixed)
RNA 1: CACCCGUGCAAAAUUGCAGGGGUCUAAAACGACCUGAAUAUUUCAGAUCAAA
RNA 2: GGGAAUGGAUCCACAUCUACGAAUUCGUUUUUGAUCUGAAAUAUUCCGCUCUGCAGAUCGGAAGAGCACACGU
B6: target 3 insA 3' of 10,insA 3' of 6 (mixed)
RNA 1: CACCCGUGCAAAAUUGCAGGGGUCUAAAACGACCUGAAUAUUUCAGAUCAAA
RNA 2: GGGAAUGGAUCCACAUCUACGAAUUCGUUUUUGAUCUGAAAUAAUUCAAGGUCUGCAGAUCGGAAGAGCACACGU
B7: target 3 U2G (mixed)
RNA 1: CACCCGUGCAAAAUUGCAGGGGUCUAAAACGACCUGAAUAUUUCAGAUCAAA
RNA 2: GGGAAUGGAUCCACAUCUACGAAUUCGUUUUUGAUCUGAAAUAUUCAGGGCUGCAGAUCGGAAGAGCACACGU
B8: target 3 U22G (mixed)
RNA 1: CACCCGUGCAAAAUUGCAGGGGUCUAAAACGACCUGAAUAUUUCAGAUCAAA
RNA 2: GGGAAUGGAUCCACAUCUACGAAUUCGUUGUUGAUCUGAAAUAUUCAGGUCUGCAGAUCGGAAGAGCACACGU
B9: target 3 A13G (mixed)
RNA 1: CACCCGUGCAAAAUUGCAGGGGUCUAAAACGACCUGAAUAUUUCAGAUCAAA
RNA 2: GGGAAUGGAUCCACAUCUACGAAUUCGUUUUUGAUCUGGAAUAUUCAGGUCUGCAGAUCGGAAGAGCACACGU
B10: target 3 insA 3' of 7,insG 3' of 6 (mixed)
RNA 1: CACCCGUGCAAAAUUGCAGGGGUCUAAAACGACCUGAAUAUUUCAGAUCAAA
RNA 2: GGGAAUGGAUCCACAUCUACGAAUUCGUUUUUGAUCUGAAAUAUUACGAGGUCUGCAGAUCGGAAGAGCACACGU
B11: target 3 insU 3' of 3 (mixed)
RNA 1: CACCCGUGCAAAAUUGCAGGGGUCUAAAACGACCUGAAUAUUUCAGAUCAAA
RNA 2: GGGAAUGGAUCCACAUCUACGAAUUCGUUUUUGAUCUGAAAUAUUCAGGUUCUGCAGAUCGGAAGAGCACACGU
B12: target 3 insC 3' of 3,insU 3' of 3 (mixed)
RNA 1: CACCCGUGCAAAAUUGCAGGGGUCUAAAACGACCUGAAUAUUUCAGAUCAAA
RNA 2: GGGAAUGGAUCCACAUCUACGAAUUCGUUUUUGAUCUGAAAUAUUCAGGCUUCUGCAGAUCGGAAGAGCACACGU
B13: target 3 insC 3' of 22,insC 3' of 5 (mixed)
RNA 1: CACCCGUGCAAAAUUGCAGGGGUCUAAAACGACCUGAAUAUUUCAGAUCAAA
RNA 2: GGGAAUGGAUCCACAUCUACGAAUUCGUUUCUUGAUCUGAAAUAUUCACGGUCUGCAGAUCGGAAGAGCACACGU
B14: target 3 insG 3' of 7,insU 3' of 5 (mixed)
RNA 1: CACCCGUGCAAAAUUGCAGGGGUCUAAAACGACCUGAAUAUUUCAGAUCAAA
RNA 2: GGGAAUGGAUCCACAUCUACGAAUUCGUUUUUGAUCUGAAAUAUUGCAUGGUCUGCAGAUCGGAAGAGCACACGU
B15: target 3 insU 3' of 3,insU 3' of 3 (mixed)
RNA 1: CACCCGUGCAAAAUUGCAGGGGUCUAAAACGACCUGAAUAUUUCAGAUCAAA
RNA 2: GGGAAUGGAUCCACAUCUACGAAUUCGUUUUUGAUCUGAAAUAUUCAGGUUUCUGCAGAUCGGAAGAGCACACGU
B16: target 3 insG 3' of 5,insU 3' of 3 (mixed)
RNA 1: CACCCGUGCAAAAUUGCAGGGGUCUAAAACGACCUGAAUAUUUCAGAUCAAA
RNA 2: GGGAAUGGAUCCACAUCUACGAAUUCGUUUUUGAUCUGAAAUAUUCAGGGUUCUGCAGAUCGGAAGAGCACACGU
B17: target 3 insA 3' of 3,insA 3' of 2 (mixed)
RNA 1: CACCCGUGCAAAAUUGCAGGGGUCUAAAACGACCUGAAUAUUUCAGAUCAAA
RNA 2: GGGAAUGGAUCCACAUCUACGAAUUCGUUUUUGAUCUGAAAUAUUCAGGAUACUGCAGAUCGGAAGAGCACACGU
B18: target 3 G4A,A13G (mixed)
RNA 1: CACCCGUGCAAAAUUGCAGGGGUCUAAAACGACCUGAAUAUUUCAGAUCAAA
RNA 2: GGGAAUGGAUCCACAUCUACGAAUUCGUUUUUGAUCUGGAAUAUUCAAGUCUGCAGAUCGGAAGAGCACACGU
B19: target 3 C1A,U22G (mixed)
RNA 1: CACCCGUGCAAAAUUGCAGGGGUCUAAAACGACCUGAAUAUUUCAGAUCAAA
RNA 2: GGGAAUGGAUCCACAUCUACGAAUUCGUUGUUGAUCUGAAAUAUUCAGGUAUGCAGAUCGGAAGAGCACACGU
B20: target 3 insG 3' of 9,insA 3' of 6 (mixed)
RNA 1: CACCCGUGCAAAAUUGCAGGGGUCUAAAACGACCUGAAUAUUUCAGAUCAAA
RNA 2: GGGAAUGGAUCCACAUCUACGAAUUCGUUUUUGAUCUGAAAUAGUUCAAGGUCUGCAGAUCGGAAGAGCACACGU
B21: target 3 C6U,U7G (mixed)
RNA 1: CACCCGUGCAAAAUUGCAGGGGUCUAAAACGACCUGAAUAUUUCAGAUCAAA
RNA 2: GGGAAUGGAUCCACAUCUACGAAUUCGUUUUUGAUCUGAAAUAUGUAGGUCUGCAGAUCGGAAGAGCACACGU
B22: target 1 insC 3' of 9,insU 3' of 6 (mixed)
RNA 1: CACCCGUGCAAAAAUGCAGGGGUCUAAAACUGAGCGGAUAACCUCUCUAUGG
RNA 2: GGGAAUGGAUCCACAUCUACGAAUUCGUACCAUAGAGAGGUUACUCCUGCUCACCGAGAUCGGAAGAGCACACGU
B23: target 1 A1G,U3A (mixed)
RNA 1: CACCCGUGCAAAAAUGCAGGGGUCUAAAACUGAGCGGAUAACCUCUCUAUGG
RNA 2: GGGAAUGGAUCCACAUCUACGAAUUCGUACCAUAGAGAGGUUAUCCGCACGCCGAGAUCGGAAGAGCACACGU

The series addresses T1, EsCas13d, nuclease-dead. Briefly: crRNA (strand 1, pre-loaded); Mg2+; 40 mM Tris-HCl pH 7.5, 150 mM NaCl, 6 mM MgCl2, 1 mM DTT, 0.1% Tween-20, 0.2 mg/ml BSA; 25 C; 10 min per concentration, then washed. The conditions noted are these: tags: His6-TwinStrep-SUMO cleaved; N-terminal SNAP kept (SNAP-Surface 488); label: 3' end held by stalled T7 RNA polymerase.
In turn, B1 had a Kd of 23.4 ± 3.5 nM.
Turning to B2, binding was put at a Kd of 123 ± 29 nM.
In the case of B3 it was 63 ± 7 nM.
For B4 the value was 47 ± 6 nM; for B5, 96.5 ± 15.5 nM; for B6, 71 ± 8.5 nM.
In the case of B7 it was 26.5 ± 2.7 nM; in that of B8, 61 ± 13 nM.
Turning to B9, binding was put at a Kd of 69 ± 20 nM.
B10: the Kd stood at 21.1 ± 1.4 nM.
On to B11, for which the dissociation constant (Kd) was 29.2 ± 3.4 nM.
For B12 the value was 17.9 ± 2.1 nM; for B13, 32 ± 4.5 nM.
Regarding B14, the Kd was 19.9 ± 2.2 nM.
For B15 the value was 81 ± 20 nM.
With B16, the Kd stood at 30 ± 4.5 nM.
In the case of B17 it was 26.5 ± 6 nM; in that of B18, 112 ± 35 nM; in that of B19, roughly 87 nM.
For B20 the value was 90.5 ± 16 nM; for B21, 39 ± 6 nM.
For B22, the affinity, expressed as Kd, was 16.6 ± 0.9 nM.
In the case of B23 it was 6.8 ± 0.6 nM.

One may read the Kd as the concentration at which binding is half-saturated. High values mean lower affinity, low ones higher affinity.

The values above are taken from publication PMC10786891, “Massively parallel profiling of RNA-targeting CRISPR-Cas13d”.
